Measured values reported in patent publication US20180179276A1 (NEURIMMUNE, published 2018).

Target: pathological Aβ deposits in a human brain with Alzheimer's disease (human, UniProt P05067 672-713)
Assay: not described (human Alzheimer brain tissue)

Chain of pathological Aβ deposits in a human brain with Alzheimer's disease (P05067 672-713): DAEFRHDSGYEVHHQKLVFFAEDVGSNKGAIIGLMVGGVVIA

B1: antibody NI-203.26C11 (constant region as tested not stated) (antibody, V domains shown)
VH: QVQLQESGPGLVKPSQTLSLTCTVSGGSISSGNYYWTWIRQPAGKGLEWIGHIYSSGTTNYNPSLESRVTISVDTSKNQFSLSLNSVTAADTAVYYCARPLATVPDAFNIWGQGTMVTVSS
VL: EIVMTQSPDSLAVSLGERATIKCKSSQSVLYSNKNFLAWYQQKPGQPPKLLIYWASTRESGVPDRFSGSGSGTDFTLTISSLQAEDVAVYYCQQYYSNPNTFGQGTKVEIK
notes: also called anti-hIAPP antibody
B1: no binding.
